Earlier results on 1 substance are cited in paper PMC5371392.

In general, Kd refers to the equilibrium constant for the complex coming apart.

In the data set the target is KaiC (Synechococcus elongatus) (UniProt Q79PF4).
Sequence of UniProt Q79PF4 (Q79PF4 whole entry): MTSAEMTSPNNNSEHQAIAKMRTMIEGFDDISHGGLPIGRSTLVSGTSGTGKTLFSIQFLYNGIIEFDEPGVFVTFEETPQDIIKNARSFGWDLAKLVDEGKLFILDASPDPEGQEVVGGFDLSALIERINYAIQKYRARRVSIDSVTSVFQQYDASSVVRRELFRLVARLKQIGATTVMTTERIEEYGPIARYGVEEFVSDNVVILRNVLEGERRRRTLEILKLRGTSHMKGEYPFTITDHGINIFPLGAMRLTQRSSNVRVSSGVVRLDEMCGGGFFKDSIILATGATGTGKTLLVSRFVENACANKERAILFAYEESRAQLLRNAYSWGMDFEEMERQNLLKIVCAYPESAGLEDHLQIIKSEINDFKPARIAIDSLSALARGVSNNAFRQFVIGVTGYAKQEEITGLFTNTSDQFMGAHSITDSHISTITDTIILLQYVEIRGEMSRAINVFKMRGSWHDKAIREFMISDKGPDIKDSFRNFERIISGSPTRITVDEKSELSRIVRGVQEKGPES

On to KaiA (from UniProt Q79PF6), for which the Kd is 1 nM.
